Experimental data reported in article PMC2266626.

Columns and labels:
Test in all cases: FRET or BRET
YFP-GKC (rat) = biological target: YFP-GKC (rat)
YFP-GKC[trunc] (rat) = biological target: YFP-GKC[trunc] (rat)
YFP-α1C (α1C[1671]) = YFP-α1C (α1C[1671]) (UniProt P15381)
YFP-GKC[ΔPYDVV] (rat) = biological target: YFP-GKC[ΔPYDVV] (rat)

CFP-NSH3 (domain or fragment)
FRET ratio (FR) (YFP-GKC (rat)): 2.8 | K d,EFF (relative dissociation constant) (YFP-GKC (rat)): 1870 | effective FRET efficiency (E EFF) (YFP-GKC (rat)): 10.2% | FRET ratio (FR) (YFP-GKC[trunc] (rat)): 3.7 | K d,EFF (relative dissociation constant) (YFP-GKC[trunc] (rat)): 3090 | effective FRET efficiency (E EFF) (YFP-GKC[trunc] (rat)): 15.5% | FRET ratio (FR) (YFP-α1C (α1C[1671])): 1.68 | K d,EFF (relative dissociation constant) (YFP-α1C (α1C[1671])): 11700

CFP-α1C[I-II loop] (domain or fragment)
FRET ratio (FR) (YFP-GKC (rat)): 5.4 | effective FRET efficiency (E EFF) (YFP-GKC (rat)): 25.6% | FRET ratio (FR) (YFP-GKC[ΔPYDVV] (rat)): 5.5 | effective FRET efficiency (E EFF) (YFP-GKC[ΔPYDVV] (rat)): 26.1%
